Test [1] addresses T1, FimF-FimGt (the two subunits of the ternary FimCHisFG complex) (E. coli, UniProt P08189 21-176; P08190 24-167).
T1 chain 1: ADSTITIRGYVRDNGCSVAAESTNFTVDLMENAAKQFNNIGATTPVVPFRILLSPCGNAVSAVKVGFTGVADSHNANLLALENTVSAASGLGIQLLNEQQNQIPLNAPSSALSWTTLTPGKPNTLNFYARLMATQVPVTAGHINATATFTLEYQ
T1 chain 2: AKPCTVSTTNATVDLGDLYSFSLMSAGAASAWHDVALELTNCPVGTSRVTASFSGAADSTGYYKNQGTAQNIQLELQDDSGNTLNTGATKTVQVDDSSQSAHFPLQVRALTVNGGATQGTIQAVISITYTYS
Nature of the test: 37 °C, excess FimC; printed as 0.49 h-1.

Test [2] addresses T2, FimFt (E. coli).
T2 chain: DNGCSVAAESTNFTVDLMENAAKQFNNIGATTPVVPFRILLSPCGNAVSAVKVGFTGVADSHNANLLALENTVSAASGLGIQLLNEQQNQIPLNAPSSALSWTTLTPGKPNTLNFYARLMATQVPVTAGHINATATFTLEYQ
As to the kind of experiment: 37 °C, excess FimC; printed as 0.44 h-1.

Test [3] has as its target T3, FimI (E. coli W3110, UniProt P39264 20-179).
T3 chain: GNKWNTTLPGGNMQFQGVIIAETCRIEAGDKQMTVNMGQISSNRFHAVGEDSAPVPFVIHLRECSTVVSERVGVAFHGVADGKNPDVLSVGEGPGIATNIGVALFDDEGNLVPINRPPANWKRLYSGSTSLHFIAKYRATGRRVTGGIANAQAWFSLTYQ
As to the kind of experiment: 37 °C, excess FimC.

For test [4], the target named is T4, FimI-FimAtHis (the two subunits of the ternary FimCHisIA complex) (E. coli W3110 | E. coli, UniProt P39264 20-179; P04128 37-182).
T4 chain 1: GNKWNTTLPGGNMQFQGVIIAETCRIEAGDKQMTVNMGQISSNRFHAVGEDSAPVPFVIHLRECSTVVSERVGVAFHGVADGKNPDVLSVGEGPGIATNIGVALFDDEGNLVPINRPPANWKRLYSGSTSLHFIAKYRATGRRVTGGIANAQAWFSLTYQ
T4 chain 2: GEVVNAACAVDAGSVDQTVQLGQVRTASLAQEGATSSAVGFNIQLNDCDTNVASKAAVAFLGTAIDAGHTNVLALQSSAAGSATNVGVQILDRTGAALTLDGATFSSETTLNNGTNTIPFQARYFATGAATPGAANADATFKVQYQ
As to the kind of experiment: 37 °C, excess FimC; printed as 0.18 h-1.

In publication PMC10673952 (2023) one finds koff data, which are given here for one molecule.

B1: FimCHis (FimC with C-terminal hexahistidine tag) (natural protein)
chain: GVALGATRVIYPAGQKQEQLAVTNNDENSTYLIQSWVENADGVKDGRFIVTPPLFAMKGKKENTLRILDATNNQLPQDRESLFWMNVKAIPSMDKSKLTENTLQLAIISRIKLYYRPAKLALPPDQAAEKLRFRRSANSLTLINPTPYYLTVTELNAGTRVLENALVPPMGESTVKLPSDAGSNITYRTINDYGALTPKMTGVME
As for B1, the koff in test [1] was found to be 0.000136 s⁻¹; in test [2], 0.000122 s⁻¹; in test [3] it was 0.011 s⁻¹; in test [4], 5e-05 s⁻¹.
